According to publication PMC7652997, “Regulation of γ-Aminobutyrate (GABA) Utilization in Corynebacterium glutamicum by the PucR-Type Transcriptional Regulator GabR and by Alternative Nitrogen and Carbon Sources”:
Blank lines part the entries; values can stand above or below the molecule they belong to.

Columns and labels:
[1] = target: GabR (Cg0565), PucR-type transcriptional regulator of Corynebacterium glutamicum (Corynebacterium glutamicum ATCC 13032); assay: SEC; Tag-free GabR on Superdex 200 Increase 10/300 GL, 100 mM phosphate buffer pH 7.0 with 1 mM DTT, 0.75 mL/min; native size from a calibration curve (Kav versus log Mr) of standard proteins; apparent mass 420 kDa against a theoretical monomer mass of 55.75 kDa
GabR [2] = target: T1, GabR (Corynebacterium glutamicum WT, UniProt Q8NT36 1-504); assay: EMSA; reasonable binding; 10 mM Tris-HCl pH 7.5, 50 mM NaCl, 5% glycerol, 0.005% Triton X-100, 20 min at room temperature; 100 ng DNA, 0-2.6 uM GabR monomer; native PAGE in TB buffer pH; conditions: protein: recombinant; tags: N-terminal His10 removed with TEV protease; chain copies: 8; blunt
T1 sequence: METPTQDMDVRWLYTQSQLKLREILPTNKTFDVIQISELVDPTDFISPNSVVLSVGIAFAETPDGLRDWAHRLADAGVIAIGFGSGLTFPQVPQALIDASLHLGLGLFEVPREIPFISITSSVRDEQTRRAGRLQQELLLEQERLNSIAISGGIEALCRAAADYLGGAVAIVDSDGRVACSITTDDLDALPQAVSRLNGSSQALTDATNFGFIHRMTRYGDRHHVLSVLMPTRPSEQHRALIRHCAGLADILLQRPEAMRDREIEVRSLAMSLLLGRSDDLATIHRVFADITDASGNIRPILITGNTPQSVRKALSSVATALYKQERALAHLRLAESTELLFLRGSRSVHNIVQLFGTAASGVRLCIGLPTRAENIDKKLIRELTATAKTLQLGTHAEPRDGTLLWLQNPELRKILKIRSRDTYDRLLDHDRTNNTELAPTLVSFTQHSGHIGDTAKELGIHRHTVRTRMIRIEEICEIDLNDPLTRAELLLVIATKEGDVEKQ

GabR [3] = target: T1, GabR; assay: EMSA; complex band absent from negative control; 10 mM Tris-HCl pH 7.5, 50 mM NaCl, 5% glycerol, 0.005% Triton X-100, 20 min at room temperature; 100 ng DNA, 0-2.6 uM GabR monomer; native PAGE in TB buffer pH; conditions: protein: recombinant; tags: N-terminal His10 removed with TEV protease; chain copies: 8; blunt

stoichiometry N [1]: 8
Molecule: GabR (Cg0565), PucR-type transcriptional regulator of Corynebacterium glutamicum (natural protein)

B1: FS3 (dsDNA)
DNA 1: CTGTCAATTATCCATATGGGCGAAATATTGT
DNA 2: ACAATATTTCGCCCATATGGATAATTGACAG
binding result (GabR [2]): binds

B2: NC3 (dsDNA)
DNA 1: CACAGGAGGAACCGTGGAAGATCTCTCATAC
DNA 2: GTATGAGAGATCTTCCACGGTTCCTCCTGTG
binding result (GabR [3]): no binding
